Data on ten molecules can be found in patent US20260159603A1 (BEAM THERAPEUTICS, published 2026).

Usually Kd stands for the equilibrium constant for the complex coming apart. As usually defined, the koff is a measure of how fast the partners let go of each other. Broadly, the kon is a measure of how fast the partners come together. A low value points to slower complex formation.

In test [1] the target is T1, biotinylated human CD5-HIS (human, UniProt P06127 25-372, biotinylated).
T1 construct: Loaded onto streptavidin Octet pins; also called huCD5; SA-human CD5; not shown: HIS tag
T1 sequence (looked up): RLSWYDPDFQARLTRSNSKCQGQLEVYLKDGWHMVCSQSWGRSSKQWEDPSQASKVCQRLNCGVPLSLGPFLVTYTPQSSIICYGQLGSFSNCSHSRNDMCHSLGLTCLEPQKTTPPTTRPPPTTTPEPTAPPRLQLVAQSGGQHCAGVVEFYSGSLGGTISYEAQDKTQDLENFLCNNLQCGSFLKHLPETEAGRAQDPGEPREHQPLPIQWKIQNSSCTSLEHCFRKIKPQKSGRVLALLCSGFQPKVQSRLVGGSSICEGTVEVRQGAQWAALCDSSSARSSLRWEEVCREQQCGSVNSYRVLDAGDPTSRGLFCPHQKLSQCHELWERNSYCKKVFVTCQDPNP
The test is described as follows: BLI; KD on human CD5 divided by KD on cynomolgus CD5. (In general: Biolayer interferometry detects binding as a change in optical thickness at a sensor tip.)

Test [2] has as its target T1, biotinylated human CD5-HIS. The test is described as follows: BLI (Octet), biotinylated CD5-HIS on streptavidin pins.
Test [3] concerns the target T2, biotinylated cynomolgus CD5-HIS (cynomolgus).
T2 construct: Loaded onto streptavidin Octet pins; also called CynoCD5; SA-Cyno CD5
The description is as above.

In test [4] the target is T3, human CD5 on transfected HEK293T cells (human, UniProt P06127 25-495).
T3 construct: whole, on cells; also called huCD5; Human CD5 Cells
T3 sequence (looked up): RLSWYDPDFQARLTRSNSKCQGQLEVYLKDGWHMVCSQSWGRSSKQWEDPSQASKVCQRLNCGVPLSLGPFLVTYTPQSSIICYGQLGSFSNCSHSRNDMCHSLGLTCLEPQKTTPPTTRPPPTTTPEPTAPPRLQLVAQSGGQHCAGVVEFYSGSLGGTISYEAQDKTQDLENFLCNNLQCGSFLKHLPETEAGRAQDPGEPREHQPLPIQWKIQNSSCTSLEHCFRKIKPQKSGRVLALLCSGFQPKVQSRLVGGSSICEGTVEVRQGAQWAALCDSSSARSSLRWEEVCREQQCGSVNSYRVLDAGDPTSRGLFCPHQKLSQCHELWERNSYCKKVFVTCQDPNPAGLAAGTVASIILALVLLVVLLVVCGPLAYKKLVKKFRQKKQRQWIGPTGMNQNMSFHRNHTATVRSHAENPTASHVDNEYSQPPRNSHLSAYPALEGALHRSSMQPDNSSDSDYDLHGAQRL
The test is described as follows: flow cytometry, periplasmic extract on transfected HEK293T cells.

For test [5], the target named is T4, cynomolgus CD5 on transfected HEK293T cells (cynomolgus (Table 8B); rhesus macaque …).
T4 construct: whole, on cells; also called Cynomolgus CD5 Cells; rhesus macaque (Macaca mulatta) CD5
The description is as above.

The target of test [6] is T1, biotinylated human CD5-HIS. The test is described as follows: BLI (Octet), biotinylated CD5-HIS on streptavidin pins, periplasmic extract, off-rate.
In test [7] the target is T2, biotinylated cynomolgus CD5-HIS. Described as above.

B1: ABTx320 (VHH)
VHH: QVQLVESGGGLVQAGGSLRLSCAASGPAFSSSGMGWFRQAPGKAREFVASMDWTGGSTYYGDSVKGRFTVSRDNAKMTVHLQMNSLRPEDTAVYYCARGTSGVAAVNLRGFFSWGPGTQVTVSS
notes: VHH in periplasmic extract of the phage display clone; also called clone 157; not shown: c-myc tag of the phagemid construct (detected with anti-c-myc 9E10)
With B1, the “Hu/Cyno KD” value in test [1] came out at 1.1. For the same molecule, the Kd in test [2] worked out at 2.8 nM; in test [3], 2.6 nM. For the same molecule, the koff in test [2] was found to be 0.00019 s⁻¹; in test [3], 0.0002 s⁻¹; in test [6], 0.00137 s⁻¹; in test [7], 0.000757 s⁻¹. In addition, the kon in test [2] came to 69000 M⁻¹ s⁻¹; in test [3] it was 76000 M⁻¹ s⁻¹. In addition, the “percent of cells showing binding” value in test [4] was determined as 80.3%; in test [5], 77.7%.

B2: ABTx321 (VHH)
VHH: QLQLVESGGGLVQPGESLRLSCVVSGDIFSFVGWGWYRQAPGKQREVVAQISTGGLTNYADSVKGRFAISRDNAKRTVYLQMNSLKFEDTAVYYCNVPGHPWGQGTQVTVSS
notes: VHH in periplasmic extract of the phage display clone; also called clone 1043; not shown: c-myc tag of the phagemid construct (detected with anti-c-myc 9E10)
For B2, the “Hu/Cyno KD” value in test [1] turned out to be 0.6. The Kd in test [2] worked out at 0.23 nM; in test [3] it was 0.37 nM. In addition, the koff in test [2] was 5.2e-05 s⁻¹; in test [3], 8.8e-05 s⁻¹; in test [6], 0.0077 s⁻¹; in test [7], 0.0136 s⁻¹. Besides, the kon amounted to 220000 M⁻¹ s⁻¹ in test [2] and 240000 M⁻¹ s⁻¹ in test [3]. The entries for the “percent of cells showing binding” value in test [4] and in test [5] were 84.9% and 87.7%, respectively.

B3: ABTx328 (VHH)
VHH: QVQLVESGGGLVQPGESLRLSCVVSGDIFSFIGWGWYRQAPGKQRELVAQINTGGLTDYADSVKGRFTISRDNAKRTVYLQMNSLKFEDTAVYYCNFPGHSWGQGTQVTVSS
notes: VHH in periplasmic extract of the phage display clone; also called clone 1050; not shown: c-myc tag of the phagemid construct (detected with anti-c-myc 9E10)
As for B3, the “Hu/Cyno KD” value in test [1] turned out to be 0.4. Also, the Kd in test [2] came to 0.36 nM; in test [3], 0.93 nM. In addition, the dissociation rate constant (koff) in test [2] is 9.2e-05 s⁻¹; in test [3], 0.00018 s⁻¹; in test [6], 7.04e-05 s⁻¹; in test [7] it was 6.34e-05 s⁻¹. Moreover, the kon in test [2] turned out to be 260000 M⁻¹ s⁻¹; in test [3], 190000 M⁻¹ s⁻¹. In addition, the results for the “percent of cells showing binding” value in test [4] and in test [5] were 45.4% and 40.7%, respectively.

B4: ABTx318 (VHH)
VHH: QVQLQESGGGSVQAGGSLRLSCAASGRAFSAYAMGWFRQAPGKEREFVAAINWNGDTALRWNGFATRYADSVKGRFTISRVIAKNTVNLQMNSLKPEDTAVYYCAADTVVSGSYYLAARAEDYEYWGQGTQVTVSS
notes: VHH in periplasmic extract of the phage display clone; also called clone 333; not shown: c-myc tag of the phagemid construct (detected with anti-c-myc 9E10)
Regarding B4, the “Hu/Cyno KD” value in test [1] came to 1. Besides, the Kd in test [2] turned out to be 2.5 nM; in test [3] it was 2.4 nM. In addition, the koff is 0.00016 s⁻¹ in test [2], 0.00022 s⁻¹ in test [3], 0.0138 s⁻¹ in test [6] and 0.0546 s⁻¹ in test [7]. The kon worked out at 65000 M⁻¹ s⁻¹ in test [2] and 91000 M⁻¹ s⁻¹ in test [3]. In addition, the “percent of cells showing binding” value in test [4] came out at 84.9%; in test [5], 67.1%.

B5: ABTx315 (VHH)
VHH: QVQLVESGGGLVQAGGSLRLSCAASGRTFGTYTMGWFRQAPGREREFVAAISWSAGRTYYADSMKGRFTISRDNAKNTVYLQMNSLKPEDTAVYYCAADPWTSDSDYDRLTMYDYWGQGTQVTVSS
notes: VHH in periplasmic extract of the phage display clone; also called clone 502; not shown: c-myc tag of the phagemid construct (detected with anti-c-myc 9E10)
For the molecule B5, the “Hu/Cyno KD” value in test [1] is 1.8. Also, the Kd in test [2] stood at 0.4 nM; in test [3], 0.22 nM. Moreover, the koff in test [2] was found to be 6.3e-05 s⁻¹; in test [3] it was 5.8e-05 s⁻¹; in test [6], 0.000566 s⁻¹; in test [7], 0.000345 s⁻¹. Besides, the kon came out at 160000 M⁻¹ s⁻¹ in test [2] and 260000 M⁻¹ s⁻¹ in test [3]. The “percent of cells showing binding” value in test [4] stood at 86.4%; in test [5] it was 79.1%.

B6: ABTx316 (VHH)
VHH: QVQLVESGGGLVQAGGSLRLSCAASGGTVSSYAMGWFRQAPGKEREFVAVISWSGGRTYYADSVKGRFTISRDNAKNTVNLQMNSLKPEDTAVYYCAADPWTSDSDYERLTMYDYWGQGTQVTVSS
notes: VHH in periplasmic extract of the phage display clone; also called clone 525; not shown: c-myc tag of the phagemid construct (detected with anti-c-myc 9E10)
Regarding B6, the “Hu/Cyno KD” value in test [1] was found to be 0.9. The equilibrium dissociation constant (Kd) in test [2] was 1.4 nM; in test [3], 1.6 nM. Moreover, the koff is 0.00015 s⁻¹ in test [2], 0.00021 s⁻¹ in test [3], 0.0054 s⁻¹ in test [6] and 0.0343 s⁻¹ in test [7]. Further, the kon in test [2] came to 110000 M⁻¹ s⁻¹; in test [3], 130000 M⁻¹ s⁻¹. In addition, the figures for the “percent of cells showing binding” value in test [4] and in test [5] were 85.8% and 81.7%, respectively.

B7: ABTx323 (VHH)
VHH: QVQLQESGGGLVQAGGSLRLSCATSGITSSINVIGWYRQAPGKQRELVALVNSGGQTHYADSVKGRFTISRDNAKNTVFLQMNSLKPEDTAEYYCHGRYGIDNYWGEGTQVTVSS
notes: VHH in periplasmic extract of the phage display clone; also called clone 155; not shown: c-myc tag of the phagemid construct (detected with anti-c-myc 9E10)
In the case of B7, the “Hu/Cyno KD” value in test [1] worked out at 0.9. For the same molecule, the Kd in test [2] came out at 1.2 nM; in test [3], 1.3 nM. Further, the koff in test [2] was determined as 0.00011 s⁻¹; in test [3], 0.00012 s⁻¹; in test [6], 0.000138 s⁻¹; in test [7] it was 0.000347 s⁻¹. In addition, the values for the kon in test [2] and in test [3] were 93000 M⁻¹ s⁻¹ and 89000 M⁻¹ s⁻¹, respectively. For the same molecule, the results for the “percent of cells showing binding” value in test [4] and in test [5] were 64.1% and 54.6%, respectively.

B8: ABTx324 (VHH)
VHH: QVQLVESGGGLVQPGGSVRLSCATSGSIFSTNVMGWYRQAPGKEREFVALIRGGGSTHYADSVKGRFIISRENAKTTVYLQMNGLKPEDTAVYYCVIWLGSPGAMSDYWGQGTQVTVSS
notes: VHH in periplasmic extract of the phage display clone; also called clone 550; not shown: c-myc tag of the phagemid construct (detected with anti-c-myc 9E10)
In the case of B8, the “Hu/Cyno KD” value in test [1] stood at 0.7. Besides, the Kd worked out at 1.7 nM in test [2] and 2.3 nM in test [3]. Moreover, the koff in test [2] is 0.00017 s⁻¹; in test [3], 0.00016 s⁻¹; in test [6], 0.00271 s⁻¹; in test [7], 0.0177 s⁻¹. Further, the kon in test [2] stood at 99000 M⁻¹ s⁻¹; in test [3], 71000 M⁻¹ s⁻¹. Besides, the “percent of cells showing binding” value in test [4] amounted to 73.3%; in test [5], 73.2%.

B9: ABTx319 (VHH)
VHH: QVQLVESGGGLVQPGGSLRLSCAASGFTFSMYSMSWVRQAPGKRLEWVSSISTGARDTAYADSVKGRFTISRDNADNTLYLHMNNLKPEDTAVYYCANGDLRYGPDGYDYRGQGTQVTVSS
notes: VHH in periplasmic extract of the phage display clone; also called clone 917; not shown: c-myc tag of the phagemid construct (detected with anti-c-myc 9E10)
Regarding B9, in test [1], the “Hu/Cyno KD” value is 0.8. The figures for the Kd in test [2] and in test [3] were 1.8 nM and 2.2 nM, respectively. The dissociation rate constant (koff) came to 0.00013 s⁻¹ in test [2], 0.0002 s⁻¹ in test [3], 0.0116 s⁻¹ in test [6] and 0.0531 s⁻¹ in test [7]. Also, the kon was 72000 M⁻¹ s⁻¹ in test [2] and 94000 M⁻¹ s⁻¹ in test [3]. Besides, the “percent of cells showing binding” value in test [4] worked out at 74.8%; in test [5], 62.6%.

B10: ABTx322 (VHH)
VHH: QLQLVESGGGLVQPGGSLRLSCAASGSDFLVDATTWFRQAPGNQREFVAIMDIGGVTEYADSVKGRFTISRDHTKNTVYLQMNSLKVEDTAVYYCNTRGLWGQGTLVTVSS
notes: VHH in periplasmic extract of the phage display clone; also called clone 660; not shown: c-myc tag of the phagemid construct (detected with anti-c-myc 9E10)
Turning to B10, the “Hu/Cyno KD” value in test [1] is 0.9. For the same molecule, the Kd turned out to be 1 nM in test [2] and 1.1 nM in test [3]. In addition, the off-rate constant (koff) in test [2] came to 0.0001 s⁻¹; in test [3] it was 0.00011 s⁻¹; in test [6] it was 0.000331 s⁻¹; in test [7], 0.0028 s⁻¹. Besides, the kon was 95000 M⁻¹ s⁻¹ in test [2] and 97000 M⁻¹ s⁻¹ in test [3]. Further, the “percent of cells showing binding” value in test [4] was 70.1%; in test [5] it was 82.3%.
